Measurements taken from the nanobody polyreactivity screen of Harvey et al. (2022).

experiment: yeast display, Sf9 membrane polyspecificity reagent, FACS + sequencing; frameworks hold sequencing errors
How it was run: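 Nanobodies came from a synthetic yeast display library in Saccharomyces cerevisiae BJ5465, induced with galactose for 36–48 hours and stained for 1 hour at 4 °C with 10% biotinylated, detergent-solubilized Sf9 membrane reagent. Cells were enriched on streptavidin microbeads and then FACS-sorted, with low and high (top ~1%) gates set on anti-HA fluorescence for expression and streptavidin fluorescence for reagent binding. Each polyreactivity label reflects the gate a clone came from. Genes were amplified by colony PCR, sequenced by MiSeq 2 × 250 and filtered by CDR length.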

Sequence | polyreactivity (PSR sort gate)
QVQLVESGGGFVQAGGSLRLSCAASGSTFPVYAMGWYRQAPGKERELVAAISRSGASTYYADSVKGRFTISRDNAKNTVYLQMNSLKPEDTAVYYCARGYQGRLKNEYWGQGTQVNVSS | low polyreactivity
QVQLVESGGGFVQAGGSLRLSCAASGYTFDHNAMGWYRQAPGKERELVAAISLTGSSTYYADSVKGRFTISRDNANNNVYLQMNSLKPEDTAVYYCAAVYHQAFKYKFNYWGQGTQVTVSS | low polyreactivity
QVQLVESGGGFVQAGGSLRLSCAPSGRIFLRNDMGWYRQAPGKEREWVAGISWRGGRTYYADAVKGRFTISRDNAKNTVYLQMNSLKPEDTAVYYCNADKDETSGGKYDSWGQGTQVTVSS | low polyreactivity
QVQLVESGGGFVQAGGSLRLSSAASGRTFDTNAMGWYRQSPGKERELVAAISWSAGRTYYADSVKGRFTISRDNAKNTVYLQMNSLKPEDTAVYYCAADSFTPDYYSHDYCGQGTQVTVSS | low polyreactivity
QVQLVESGGGFVQAGGSLSLSCAASGFTFRRYAMGWYRQAPGKERELVAAITSGGSTNYADSVKGRFTISRDNAKNTVYLQMNSLKPEDTAVYYCNARAGYERYGYWGQGTQVTVSS | high polyreactivity
QVQLVESGGGFVQAGGSVRLSCAASGRIFKYAMGWYIPAPGKERELVAAITHKGGSTYADSEKGRFTISRDNAKTTVYIQLNSRKPEDTAVYYCAAYYYYGKGYRRFDYWGQGTQVTVSS | low polyreactivity
QVQLVESGGGFVQAGVSLRLSCAASGSIFVVYGMGWYRQAPGKERELVAAISGGITNYADSVKGLFTISRDNAKNTVYLLMNSLKPEDTAVYYCATVDGAYQYTYDYWGQGTQVTVSS | low polyreactivity
QVQLVESGGGIDKAGGSLRLSCAPSGGIFIRYAMGWYRQAPGKERELVAGIDSGGGTKYADSVKGRFTISRDNAKNTVYLQMNSLKPEDTAVYYCNGEVSVWPFSYDYWGQGTQVTVSS | low polyreactivity
QVQLVESGGGIDQAGGSLRLRCAASGFIFRYYAMGWYRLAPGKESELVAVISASGGSTYYADSVKGRFTISRDNAKKTVYLQMNSRKPEDTAVYYCNTKRYFFHRGDMDYWGQGTQVTVSS | high polyreactivity
QVQLVESGGGIDQAGGSLRLSCAASGFIFTNYAMGWYRQAPGKERELVAAITRRGGGTYYADSVKGRFTISRDNAKKTVYVQMNSLKPEDTAVYYCAKYSRLVTANDYDYWGQGTQVTVSS | high polyreactivity
QVQLVESGGGIDQAGGSLRLSCAASGNTFYWYAMGWYRQAPGKERDLVAAISRGGRTNYADSVKGRFTISRDNAKNTVYLQMNSLKPEDTAVYFCAKDSNYPQPSKGWYRYDYWGLGTQVTVSS | high polyreactivity
QVQLVESGGGIDQAGGSLRLSCAASGRTFTSNAMGWYRQAPGKERELVAVIDRSGTSTYYADSVKGRFTISRDNAKNTVYLQMNSLKPEDTAVYYCAVRVRYSYTSRAKMYYWGQGTQVTVSS | high polyreactivity
QVQLVESGGGIVEAGGSLRLSCAASGRIFNQYAMGWYRQAPGKEREFVAAIRWSGGRTYYADSVKGRFTISRDNAKNTVYLQMNRLKPEDTAVYYCAADLYGNNYWDGTTGYDYWGQGTQVTVSS | low polyreactivity
QVQLVESGGGIVEAGGSLRLSCAASGSTYYWNAMVWYIQAPGKERELVAAISRDGSTYYADSVNGRFTISRDNAKKTVYLHMNCLKPEVTAVYYCAKACVTNVVVVDSVFAYDYWGQGTIVTVSS | low polyreactivity
QVQLVESGGGIVKAGGSLRLSCAPSGSTFDYYTMGWYRQAPGKERELVAAISRSGGSTRYADSVKGRFTISRDNAKNTVDLQMNSLKPEDTAVYYCAAGARQGVYRGGDYWGQGTQVTVSS | low polyreactivity
QVQLVESGGGIVQAGCSLRLICAASGRIFYSNYMGWYRQAPGKERELVAAISSSGGSTYYADSLKGRFTISRDNANNTVYLQMNSLKPEDTAVYYCNAVHARYRSQGDYWGQGTQVTVSS | low polyreactivity

Sequence | polyreactivity (PSR sort gate)
QVQLVESGGGIVQAGCSLRLSCAASGRTFSWNSMGWYRQAPGKERELVAAITYSGGNTYYADSVKGRFSISRDNAKNTVYLQMNSLKQEDTAVYYCAKFGVTGQGSWSQRMGYWGQGTQVTVSS | high polyreactivity
QVQLVESGGGIVQAGGILRLTGAASVITNTSYAMGWYRQAPGKERELVAAISSSGVRTYYADSVKGRFTISRDNAKNTVYLQLNSLKPEDTAVYYCATRRRVLFGYDYWGQGTQVTVSS | high polyreactivity
QVQLVESGGGIVQAGGRHRLSCAASGRTFWRNPMGWYSPAPGKERELVASIRITGGSTYYADSVMGRFTISRDNAKTTVYLQMNSLNAEDTAVYYCPASSGIRFVGLSYPIGNYYYWGQGSQVTVSS | high polyreactivity
QVQLVESGGGIVQAGGRLRLSCAASGFTCARNVMGWYRQAPGKERELVAAITTSGGSTYYADSVKGRFTISRDNAKNTVSLQMNSLKPEDTAGYYCARRVYGYYIPYNYWGQGTQVTVSS | high polyreactivity
QVQLVESGGGIVQAGGRLRLSCDASGSTFSRYTMGWYRQAPGKEREFVAAIRTSGGRTYEDSVKGRFTISRDNAKNTVYVQMNSLKPEDTAVYYCAATRYYGYNTKYEYWGQGTQVTVSS | high polyreactivity
QVQLVESGGGIVQAGGSHRLSCAASGSIFVSNAMGWYRQAPGKERELVAAISQSGGSTYYADSVKGRFTISRDTAKNTVYLQMNSLNPEDTAVYYCATPIRSGFRIYDYWGQGTQVTVSS | low polyreactivity
QVQLVESGGGIVQAGGSHRLSCAASGYIFKPNHMGWYRQAPGIDRELVAAISKSRGTTYYADSVKGRFTISRDNAKNTVYLQMNGLKPEDTAVYFCGGVRRYHSYPDGGYWGQGSQVTVSS | high polyreactivity
QVQLVESGGGIVQAGGSLLLSCAASGSTIIRYVKGWYRQAPGTERELVAGINSSAGSTNYADSVKGRFTISRDNAKNTVYLQMISLKPEDTAVYYCNADLRSEYDYWGQGTQVTVSS | low polyreactivity
QVQLVESGGGIVQAGGSLRISCAASGIIFQYYVMGWYRQAPGKESELVAAIEKSGGSTYYADSLKGRFTISRDYAKNTVYLQMNSLNPDDTAVYYCAATSYAHKYYGYFGAIKYEYWGQGTQVTVSS | low polyreactivity
QVQLVESGGGIVQAGGSLRKSCAASGFTFDENAMGWYRQAPGINYSGASTYYADSVKGRFTISRDNAKNTVYLQMNSLKPEDTAVYYCAAEVVAQMNYWGQGTQVTVSS | low polyreactivity
QVQLVESGGGIVQAGGSLRLICAASGSIFDVNALGWYSQAPGKERELVAAITWSGGNTYYADSVKGRFTISRDNAKNNFYLQMYSLKPEDTAVYYCNVYVSAGEEDEYWGQVTQVTVSS | low polyreactivity
QVQLVESGGGIVQAGGSLRLICAASGYTFNYYAMGWYRQAPGKEREFVASTYADSVKGRFTISRDNAKNTVYLQMNSLKPEDTAVYYCNARNLGRYLVLSYGYWGQGTQVTVSS | low polyreactivity
QVQLVESGGGIVQAGGSLRLICAASVITLVLYAMVWYRQAPGKERELLAAISSSGGSTYYADSVKGRFTISRDNAKNTVYLQMTSLKPEDTAVYYCNVTPDWNARRPFDYWGQGTQVTVSS | high polyreactivity
QVQLVESGGGIVQAGGSLRLRCAASGYTFEDNDMGLYRQAPGKERELVAAISVNGGSTYYADSVKGRFTISRDNAKKTVYLQMNSLKPVDTAVFYCNVDTLIGSLYGYDYWGQGTQVTVSS | high polyreactivity
QVQLVESGGGIVQAGGSLRLRCAATASIYVHYAMGWYIQAPGKETDLVAAIRWRGGSTNYADSVKGRFTISRDNAKNTVDLQMNSLKQEDTAVSYCNARHPASGDLYRMDYWGPGTQVTVSS | low polyreactivity
QVQLVESGGGIVQAGGSLRLSCAASGFIFDVYAMGWYRQAPGKERELVAAISRSGGSTYYADSVKGRFTISRDNAKNTVYLQMNSLKPEDTAVYYCATDLLNNVDYDYWGQGTQVTVSS | low polyreactivity
